From patent EP4541814A1 (Cytiva BioProcess R&D AB, dated 2025)

Key:
AAV9 viral particles [1] = biological target: T1, AAV9 viral particles (adeno-associated virus 9); experiment: SPR (Biacore 8K+), fusion protein amine-coupled to CM5, AAV9 2E12 vp/ml; response normalized to vh118
AAV9 viral particles [2] = biological target: T1, AAV9 viral particles; experiment: SPR (Biacore 8K+), fusion protein amine-coupled to CM5, AAV9 2E12 vp/ml, report point late binding

Row | Binder | Normalized AAV9 binding capacity (%) (AAV9 viral particles [1]) | Binding capacity AAV9 (2E12 vp/ml) (RU) (AAV9 viral particles [2])
1 | vh374 (SEQ ID NO:144) fused to SEQ ID NO:160, Example 5 (VHH) chain (part 1 of 2): QVQLQQSGGGSVQAGGSLRLSCTSSGRTLSDFTMAWFRQRPGRAREFVAAISWSGAYTYYTDSVKGRFTISRDNAKNTVFLQMQSLKPEDTAIYYCAAGPTGLLSRKTTPADYQYWGQGTQVTVSS chain (part 2 of 2): not shown | 102% | 
2 | vh359 (SEQ ID NO:145) fused to SEQ ID NO:160, Example 5 (VHH) chain (part 1 of 2): QVQLVESGGGSVQAGGSLSLSCTISGRTLSDFTMAWFRQRPGKEREFVAAISWSGAYTYYTDSVKGRFTISRDNAKNTVYLQMQSLKPEDTAVYYCAAGPTGLLSRKTTPADYQYWGQGTQVTVSS chain (part 2 of 2): not shown | 86.4% | 
3 | Candidate 4A-1: vh342 fusion protein (SEQ ID NO:163) (VHH) VHH: QVQLQESGGGLVQPGGSLRLSCAASGRTLSDYTMGWFRQAPGKQREFVAAISWSGAYTKYTDSVKGRFTISRDNAKTTVYLQMNSLKPEDTAVYYCAAGPTGLLSKKATPADYDYWGQGTQVTVSS |  | 9920 RU
4 | Candidate 4A-2: vh343 fusion protein (SEQ ID NO:164) (VHH) VHH: EVQLVESGGGLVQAGGSLRLSCAASGRTLSDYTMGWFRQAPGKEREFVVAISWSGAYTKYADSVKGRFTISRDNAKNTMYLQMNSLKPEDTAVYYCAAGPTGLLSKKATPADYDYWGQGTQVTVSS |  | 12400 RU
5 | Candidate 4A-3: vh118 fusion protein (SEQ ID NO:162) (VHH) VHH: QVQLQQSGGGSVQAGGSLRLSCTISGRTLSDYTMGWFRQRPGKEREFVAAISWSGAYTKYADSVKGRFTISRDNAKNTVYLQMNSLKPEDTAVYYCAAGPTGLLSKKATPADYDYWGQGTQVTVSS |  | 12400 RU
